The text below walks through data of PMC12416549 (2024).

This test concerns the target T1, TNFR1 (Homo sapiens, UniProt P19438).
T1 chain: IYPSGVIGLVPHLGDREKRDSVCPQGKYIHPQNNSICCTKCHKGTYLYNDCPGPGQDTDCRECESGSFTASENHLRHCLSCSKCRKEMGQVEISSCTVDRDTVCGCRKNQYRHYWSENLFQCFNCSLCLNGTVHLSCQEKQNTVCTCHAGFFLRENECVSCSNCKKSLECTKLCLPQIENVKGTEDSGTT
In words: yeast display SC50.

B1: L41W (designed binder)
chain: MTLQELLREEALRRAEAEAFRYALELLAEKFPEQKEYLLDWAEEIESQIRSLSGVDVEDVRKFLDKEWAWVKELLAEHPAELAEVEAARAARLAELRAEVEAKVAA
On to B1, for which the “apparent Kd (screen)” value came to 2.25 nM.

B2: S53K (designed binder)
chain: MTLQELLREEALRRAEAEAFRYALELLAEKFPEQKEYLLDLAEEIESQIRSLKGVDVEDVRKFLDKEWAWVKELLAEHPAELAEVEAARAARLAELRAEVEAKVAA
Regarding B2, the “apparent Kd (screen)” value was found to be 2.73 nM.

B3: R97G (designed binder)
chain: MTLQELLREEALRRAEAEAFRYALELLAEKFPEQKEYLLDLAEEIESQIRSLSGVDVEDVRKFLDKEWAWVKELLAEHPAELAEVEAARAARLAELGAEVEAKVAA
In the case of B3, the “apparent Kd (screen)” value was 0.539 nM.

B4: E95Q (designed binder)
chain: MTLQELLREEALRRAEAEAFRYALELLAEKFPEQKEYLLDLAEEIESQIRSLSGVDVEDVRKFLDKEWAWVKELLAEHPAELAEVEAARAARLAQLRAEVEAKVAA
For the molecule B4, the “apparent Kd (screen)” value came out at 0.446 nM.

B5: R21E (designed binder)
chain: MTLQELLREEALRRAEAEAFEYALELLAEKFPEQKEYLLDLAEEIESQIRSLSGVDVEDVRKFLDKEWAWVKELLAEHPAELAEVEAARAARLAELRAEVEAKVAA
Regarding B5, the “apparent Kd (screen)” value is 0.49 nM.

B6: V55Q (designed binder)
chain: MTLQELLREEALRRAEAEAFRYALELLAEKFPEQKEYLLDLAEEIESQIRSLSGQDVEDVRKFLDKEWAWVKELLAEHPAELAEVEAARAARLAELRAEVEAKVAA
As to B6, the “apparent Kd (screen)” value came to 1.05 nM.

B7: E16M (designed binder)
chain: MTLQELLREEALRRAMAEAFRYALELLAEKFPEQKEYLLDLAEEIESQIRSLSGVDVEDVRKFLDKEWAWVKELLAEHPAELAEVEAARAARLAELRAEVEAKVAA
In the case of B7, the “apparent Kd (screen)” value came to 1.05 nM.

B8: L82F (designed binder)
chain: MTLQELLREEALRRAEAEAFRYALELLAEKFPEQKEYLLDLAEEIESQIRSLSGVDVEDVRKFLDKEWAWVKELLAEHPAEFAEVEAARAARLAELRAEVEAKVAA
As for B8, the “apparent Kd (screen)” value was determined as 0.539 nM.

B9: E99F (designed binder)
chain: MTLQELLREEALRRAEAEAFRYALELLAEKFPEQKEYLLDLAEEIESQIRSLSGVDVEDVRKFLDKEWAWVKELLAEHPAELAEVEAARAARLAELRAFVEAKVAA
With B9, the “apparent Kd (screen)” value was 0.593 nM.

B10: F20E (designed binder)
chain: MTLQELLREEALRRAEAEAERYALELLAEKFPEQKEYLLDLAEEIESQIRSLSGVDVEDVRKFLDKEWAWVKELLAEHPAELAEVEAARAARLAELRAEVEAKVAA
For B10, the “apparent Kd (screen)” value worked out at 5.31 nM.

B11: D56V (designed binder)
chain: MTLQELLREEALRRAEAEAFRYALELLAEKFPEQKEYLLDLAEEIESQIRSLSGVVVEDVRKFLDKEWAWVKELLAEHPAELAEVEAARAARLAELRAEVEAKVAA
Consider B11, for which the “apparent Kd (screen)” value came to 2.73 nM.

B12: A88W (designed binder)
chain: MTLQELLREEALRRAEAEAFRYALELLAEKFPEQKEYLLDLAEEIESQIRSLSGVDVEDVRKFLDKEWAWVKELLAEHPAELAEVEAWRAARLAELRAEVEAKVAA
As for B12, the “apparent Kd (screen)” value worked out at 0.49 nM.

B13: V71N (designed binder)
chain: MTLQELLREEALRRAEAEAFRYALELLAEKFPEQKEYLLDLAEEIESQIRSLSGVDVEDVRKFLDKEWAWNKELLAEHPAELAEVEAARAARLAELRAEVEAKVAA
Turning to B13, the “apparent Kd (screen)” value was 0.869 nM.

B14: E86F (designed binder)
chain: MTLQELLREEALRRAEAEAFRYALELLAEKFPEQKEYLLDLAEEIESQIRSLSGVDVEDVRKFLDKEWAWVKELLAEHPAELAEVFAARAARLAELRAEVEAKVAA
On to B14, for which the “apparent Kd (screen)” value is 2.25 nM.

B15: W70L (designed binder)
chain: MTLQELLREEALRRAEAEAFRYALELLAEKFPEQKEYLLDLAEEIESQIRSLSGVDVEDVRKFLDKEWALVKELLAEHPAELAEVEAARAARLAELRAEVEAKVAA
As for B15, the “apparent Kd (screen)” value came out at 22.2 nM.

B16: L41H (designed binder)
chain: MTLQELLREEALRRAEAEAFRYALELLAEKFPEQKEYLLDHAEEIESQIRSLSGVDVEDVRKFLDKEWAWVKELLAEHPAELAEVEAARAARLAELRAEVEAKVAA
B16: the “apparent Kd (screen)” value is 13.8 nM.

B17: L41N (designed binder)
chain: MTLQELLREEALRRAEAEAFRYALELLAEKFPEQKEYLLDNAEEIESQIRSLSGVDVEDVRKFLDKEWAWVKELLAEHPAELAEVEAARAARLAELRAEVEAKVAA
Consider B17, for which the “apparent Kd (screen)” value worked out at 2.05 nM.

B18: E77Y (designed binder)
chain: MTLQELLREEALRRAEAEAFRYALELLAEKFPEQKEYLLDLAEEIESQIRSLSGVDVEDVRKFLDKEWAWVKELLAYHPAELAEVEAARAARLAELRAEVEAKVAA
For B18, the “apparent Kd (screen)” value came to 0.49 nM.

B19: E86H (designed binder)
chain: MTLQELLREEALRRAEAEAFRYALELLAEKFPEQKEYLLDLAEEIESQIRSLSGVDVEDVRKFLDKEWAWVKELLAEHPAELAEVHAARAARLAELRAEVEAKVAA
In the case of B19, the “apparent Kd (screen)” value is 0.79 nM.

B20: V71G (designed binder)
chain: MTLQELLREEALRRAEAEAFRYALELLAEKFPEQKEYLLDLAEEIESQIRSLSGVDVEDVRKFLDKEWAWGKELLAEHPAELAEVEAARAARLAELRAEVEAKVAA
Take B20: the “apparent Kd (screen)” value stood at 22.2 nM.

B21: Q48L (designed binder)
chain: MTLQELLREEALRRAEAEAFRYALELLAEKFPEQKEYLLDLAEEIESLIRSLSGVDVEDVRKFLDKEWAWVKELLAEHPAELAEVEAARAARLAELRAEVEAKVAA
In the case of B21, the “apparent Kd (screen)” value was found to be 2.73 nM.

B22: A91Q (designed binder)
chain: MTLQELLREEALRRAEAEAFRYALELLAEKFPEQKEYLLDLAEEIESQIRSLSGVDVEDVRKFLDKEWAWVKELLAEHPAELAEVEAARAQRLAELRAEVEAKVAA
For the molecule B22, the “apparent Kd (screen)” value worked out at 0.49 nM.

B23: A105Q (designed binder)
chain: MTLQELLREEALRRAEAEAFRYALELLAEKFPEQKEYLLDLAEEIESQIRSLSGVDVEDVRKFLDKEWAWVKELLAEHPAELAEVEAARAARLAELRAEVEAKVQA
For B23, the “apparent Kd (screen)” value turned out to be 0.539 nM.

B24: E29A (designed binder)
chain: MTLQELLREEALRRAEAEAFRYALELLAAKFPEQKEYLLDLAEEIESQIRSLSGVDVEDVRKFLDKEWAWVKELLAEHPAELAEVEAARAARLAELRAEVEAKVAA
As for B24, the “apparent Kd (screen)” value was 0.718 nM.

B25: I45T (designed binder)
chain: MTLQELLREEALRRAEAEAFRYALELLAEKFPEQKEYLLDLAEETESQIRSLSGVDVEDVRKFLDKEWAWVKELLAEHPAELAEVEAARAARLAELRAEVEAKVAA
Take B25: the “apparent Kd (screen)” value is 10.4 nM.

B26: W70E (designed binder)
chain: MTLQELLREEALRRAEAEAFRYALELLAEKFPEQKEYLLDLAEEIESQIRSLSGVDVEDVRKFLDKEWAEVKELLAEHPAELAEVEAARAARLAELRAEVEAKVAA
For B26, the “apparent Kd (screen)” value was found to be 26.9 nM.

B27: E77H (designed binder)
chain: MTLQELLREEALRRAEAEAFRYALELLAEKFPEQKEYLLDLAEEIESQIRSLSGVDVEDVRKFLDKEWAWVKELLAHHPAELAEVEAARAARLAELRAEVEAKVAA
Regarding B27, the “apparent Kd (screen)” value stood at 0.653 nM.

B28: L39E (designed binder)
chain: MTLQELLREEALRRAEAEAFRYALELLAEKFPEQKEYLEDLAEEIESQIRSLSGVDVEDVRKFLDKEWAWVKELLAEHPAELAEVEAARAARLAELRAEVEAKVAA
Regarding B28, the “apparent Kd (screen)” value was 2.48 nM.

B29: E18K (designed binder)
chain: MTLQELLREEALRRAEAKAFRYALELLAEKFPEQKEYLLDLAEEIESQIRSLSGVDVEDVRKFLDKEWAWVKELLAEHPAELAEVEAARAARLAELRAEVEAKVAA
For the molecule B29, the “apparent Kd (screen)” value turned out to be 0.49 nM.

B30: K35T (designed binder)
chain: MTLQELLREEALRRAEAEAFRYALELLAEKFPEQTEYLLDLAEEIESQIRSLSGVDVEDVRKFLDKEWAWVKELLAEHPAELAEVEAARAARLAELRAEVEAKVAA
Consider B30, for which the “apparent Kd (screen)” value was determined as 0.539 nM.

B31: W68C (designed binder)
chain: MTLQELLREEALRRAEAEAFRYALELLAEKFPEQKEYLLDLAEEIESQIRSLSGVDVEDVRKFLDKECAWVKELLAEHPAELAEVEAARAARLAELRAEVEAKVAA
B31: the “apparent Kd (screen)” value was determined as 2.48 nM.

B32: A17G (designed binder)
chain: MTLQELLREEALRRAEGEAFRYALELLAEKFPEQKEYLLDLAEEIESQIRSLSGVDVEDVRKFLDKEWAWVKELLAEHPAELAEVEAARAARLAELRAEVEAKVAA
With B32, the “apparent Kd (screen)” value came to 0.539 nM.

B33: A98Y (designed binder)
chain: MTLQELLREEALRRAEAEAFRYALELLAEKFPEQKEYLLDLAEEIESQIRSLSGVDVEDVRKFLDKEWAWVKELLAEHPAELAEVEAARAARLAELRYEVEAKVAA
Regarding B33, the “apparent Kd (screen)” value was 0.539 nM.

B34: V57E (designed binder)
chain: MTLQELLREEALRRAEAEAFRYALELLAEKFPEQKEYLLDLAEEIESQIRSLSGVDEEDVRKFLDKEWAWVKELLAEHPAELAEVEAARAARLAELRAEVEAKVAA
In the case of B34, the “apparent Kd (screen)” value amounted to 1.86 nM.
